Measurements published in patent US9744220B2, “Compositions and methods for treating inflammatory diseases” (priority 2013, dated 2017).
“Also recorded” adds a separate entry of the source.

Assays:
[1] = tested on: cardiac inflammatory and fibrogenic markers; assay: Chronic Chagas cardiomyopathy (CCC) mice, transcripts by qPCR; type: in vivo
Experimental: FIG. 3A depicts in vivo experimental design, groups, treatment and timeline for the infective and anti-inflammatory effects of sPDNF. C57BL/6 mice (7 per group) were injected intraperitoneally with T cruzi Colombian strain (8×10^2 per mouse) and, four months later, intravenously with PBS (vehicle) or sPDNF (1 mg/kg body weight) at 0, 3, and 24 hours, weekly for 3 weeks. Mice were sacrificed 50 days after the first set of IV sPDNF treatment. FIG. 3B are images of heart (ventricle) paraffin-embedded, sectioned, and stained with H&E. Arrows indicate foci of inflammatory infiltrates, which were abundant in sham-treated (IV PBS) CCC mice and rare in IV sPDNF-treated CCC mice. Similar histology was found in other tissue sections and in a distinct set of sPDNF-treated and PBS-sham mice.
FIG. 5A is a graph showing transcript expression for inflammatory cytokines in hearts of the infected mice, as assessed by qPCR for the indicated transcripts, which were normalized to HPRT and made relative to uninfected vehicle-treated mice. Values for IFN-λ were reduced by 3-fold; **, p<0.01. FIG. 5B is a graph showing transcript expression for inflammatory cell markers in hearts of the infected mice, as assessed by qPCR for the indicated transcripts, which were normalized to HPRT and made relative to uninfected vehicle-treated mice. Values for CD8, and CD4 were reduced by 15-, and 1.5-fold, respectively; **, p<0.01, ***, p<0.001. FIG. 5C is a graph showing transcript expression for inflammatory cytokines in hearts of the infected mice, as assessed by qPCR for the indicated transcripts, which were normalized to HPRT and made relative to uninfected vehicle-treated mice. FIG. 5D is a graph showing percent reduction of cardiac inflammatory markers of mice chronically infected with T cruzi, using data from FIGS. 5A-5C. Baseline represents mean transcripts of uninfected mice. FIG. 5E is a graph showing expression of TSG-6 transcripts in heart and liver of T cruzi infected mice. Heart (ventricles+atria) and liver of mice (5 per group) infected acutely (25-day post injection) (Acute) or chronically (6-months PI, CCC, same as in FIG. 3) with T cruzi Colombian were assessed for TSG-6 transcript by qPCR and plotted relative to uninfected mice set at 1.0; **, P<0.001. […] is a graph showing TSG-6 serum levels assessed by ELISA (MyBiosource) in mice uninfected (Un-Inf) or bearing CCC and injected IV with vehicle PBS or sPDNF following the protocol described in FIG. 3. Bars represent the average (±SD) of three mice per point; two separate experiments, **, P<0.01.

[2] = tested on: primary cardiomyocytes; assay: sPDNF stimulation of primary cardiomyocytes, chemokine transcripts by qPCR; type: cell-based, mouse; conditions: 3 hr, dose-dependent
Experimental: (§1) FIG. 7A is a graph depicting MCP-1 and FKN expression in cardiomyocytes of mice infected with T cruzi. FIG. 7B is a graph depicting MCP-1 and FKN expression in cardiac fibroblasts of mice infected with T cruzi. T cruzi infection: Primary cultures of mouse cardiomyocytes (FIG. 7A) and cardiac fibroblasts (FIG. 7B) were plated in 6-well plates, infected with T cruzi Tulahuen strain (MOI=10) for 3, 24, and 72 hr, and MCP-1 and FKN transcripts were quantified by qPCR. Chemokine gene expression was normalized to HPRT and fold change calculated relative to uninfected cells. Points represent mean±SD fold change expression of triplicate samples. The experiment was repeated, and similar results were obtained. FIG. 7C is a graph depicting MCP-1 and FKN expression in cardiomyocytes of mice injected with sPDNF. FIG. 7D is a graph depicting MCP-1 and FKN expression in cardiac fibroblasts of mice injected with sPDNF. sPDNF stimulation: Primary cardiomyocytes (FIG. 7C) and cardiac fibroblasts (FIG. 7D) were plated in 6-well plates, serum starved overnight, then stimulated with the indicated concentration of sPDNF (3 hr), and MCP-1 and FKN transcripts were quantified by qPCR. Chemokine gene expression was normalized to HPRT and fold change calculated relative to vehicle-treated cells; *P<0.05, **P<0.01, and ***P<0.005. […]

[3] = tested on: cardiac fibroblasts; assay: sPDNF stimulation of primary cardiac fibroblasts, chemokine transcripts by qPCR; type: cell-based, mouse; conditions: 3 hr, dose-dependent
Experimental: as §1

[4] = IV, naive mice; cited from earlier work
[5] = hearts of infected (CCC) mice, FIG. 5B

B1: sPDNF: N-terminal short-form of T cruzi PDNF that contains Trk-binding sites, recombinant; amino acids 1-588 of SEQ ID NO: 2; JR-100 is the commercial name (protein, listed as Trypanosoma cruzi)
chain: MGKTVVVASRMFWLMFFVPLLLAICPSEPAYALAPGSSRVELFKRKNSTVPFEDKAGKVTERVVHSFRLPALVNVDGVMVAIADARYDTSNDNSLIDTVAKYSVDDGETWETQIAIKNSRVSSVSRVVDPTVIVKGNKLYVLVGSYYSSRSYWSSHGDARDWDILLAVGEVTKSTAGGKITASIKWGSPVSLKKFFPAEMEGMHTNQFLGGAGVAIVASNGNLVYPVQVTNKKKQVFSKIFYSEDDGKTWKFGKGRSDFGCSEPVALEWEGKLIINTRVDWKRRLVYESSDMEKPWVEAVGTVSRVWGPSPKSNQPGSQSSFTAVTIEGMRVMLFTHPLNFKGRWLRDRLNLWLTDNQRIYNVGQVSIGDENSAYSSVLYKDDKLYCLHEINTDEVYSLVFARLVGELRIIKSVLRSWKNWDSHLSSICTPADPAASSSESGCGPAVTTVGLVGFLSGNASQNVWEDAYRCVNASTANAERVRNGLKFAGVGGGALWPVSQQGQNQRYRFANHAFTLVASVTIHEAPRAASPLLGASLDSSGGKKLLGLSYDEKHQWQPIYGSTPVTPTGSWETGKRYHLVLTMANKI
- expression of anti-inflammatory TSG-6 in the heart and liver ([1]; CCC mice, IV): increased expression; also recorded: restored TSG-6 transcript to levels seen in acutely infected mice
- transcripts of cardiac inflammatory and fibrogenic markers ([1]; CCC mice, IV): global decrease
- IFN-λ transcript values reduced ([1]; hearts of infected (CCC) mice, FIG. 5A): 3 fold
- CD4 transcript values reduced [1, 5]: 1.5 fold
- CD8 transcript values reduced [1, 5]: 15 fold
- cardiac inflammation (CD8 lymphocyte infiltrates, pro-inflammatory cytokines such as tumor necrosis factor-α) ([1]; model of chronic Chagas disease, intravenous): reduced
- FKN transcripts [2]: increase
- MCP-1 transcripts [2]: increase
- FKN transcripts [3]: increase
- MCP-1 transcripts [3]: increase
- half-life in the blood [4]: ~15 min
- time of peak in the myocardium post-injection [4]: ~15 min
